Measurements: the DeepSol protein solubility set

Test: soluble on expression in E. coli; label from the status in PepcDB or PDB records

Question: With “SASSSKALIESIGSLDKDSYVSLLSKLIGESKFVQNNPPELIPQEDLIVKHVLDSLRPYSTETGGGPLVINHVAYHSGRGNLIVEYPGSVPGKILSFVGMHMDVVTANPDDWEFDPFSLSIDGDKLRGRGTTDCLGHVALVTELMKKLGQAKPALKSTVVAVFIASEENSSIPGVGVDMLVKDKLLDKLKSGPLYWIDTADKQPCVGTGGMIPWKLQFTGKLFHSGLAHKAINAMELAMEGLKEIQARFYRDFPPHPQEEVYGFATPSTMKPTQWCYPAGGINQIPGECTVSGDVRLTPFYDVKEVITKLQEYVDDINGNIERLETRGPVSKYVLPDENLRGRLTLSFDEASAGVACNLDSPGFHVLCKATEEVVGHVKPYSITGTLPLIRDLQDEGFDVQTSGYGLMATYHAKNEYCLLTDMCQGFDVFIRIISQLEQV” as the sequence, how does the “soluble on expression in E. coli” value read?
Answer: soluble

Question: For “MGSDKIHHHHHHMKSYIIVGAGILGASTAYHLAKTGARVTVIDRKEPGQATDAAAGIVCPWLSQRRNQDWYQLAKGGARYYKDLIHQLEKDGESDTGYKRVGAISIHTDASKLDKMEERAYKRREDAPEIGDITRLSASETKKLFPILADGYESVHISGAARVNGRALCRSLLSAAEKRGATVIKGNASLLFENGTVTGVQTDTKQFAADAVIVTAGAWANEILKPLGIHFQVSFQKAQIMHFEMTDADTGSWPVVMPPSDQYILSFDNGRIVAGATHENDAGLDDLRVTAGGQHEVLSKALAVAPGLADAAAVETRVGFRPFTPGFLPVVGAVPNVQGLYAANGLGASGLTMGPFLGAELAKLVLGKQTELDLSPYDPAGALA”, which “soluble on expression in E. coli” value is on record?
Answer: not soluble

Question: Which “soluble on expression in E. coli” value does the source give for “MGHHHHHHSHMALVTVQRSPTPSTTSSPCASEADSGEEECRSQPRSISESFLTVKGAALFLPRGNGSSTPRISHRRNKHAGDLQQHLQAMFILLRPEDNIRLAVRLESTYQNRTRYMVVVSTNGRQDTEESIVLGMDFSSNDSSTCTMGLVLPLWSDTLIHLDGDGGFSVSTDNRVHIFKPVSVQAMWVDRDSRNKHCDVLLVEE” here?
Answer: not soluble

Question: With “MSLYAAYAGNLDARLMTRRAPHSPLRATGWLNGWRLTFGGEHMGWEGALATLVEDPISQVFVSLYDIAPMDEDSLDRWEGVGLDIYRRTRVRIHTLDGEEGAWTYVLNAYEGGLPSARYLGEIADAAESSGAPHDYVMELRKRPCLEHHHHHH” as the sequence, how does the “soluble on expression in E. coli” value read?
Answer: not soluble

Question: Which “soluble on expression in E. coli” value does the source give for “MGSSHHHHHHSSGLVPRGSHMTAEEMKATESGAQSAPLPMEGVDISPKQDEGVLKVIKREGTGTEMPMIGDRVFVHYTGWLLDGTKFDSSLDRKDKFSFDLGKGEVIKAWDIAIATMKVGEVCHITCKPEYAYGSAGSPPKIPPNATLVFEVELFEFKGEDLTEEEDGGIIRRIQTRGEGYAKPNEGAIVEVALEGYYKDKLFDQRELRFEIGEGENLDLPYGLERAIQRMEKGEHSIVYLKPSYAFGSVGKEKFQIPPNAELKYELHLKSFEKAKESWE” here?
Answer: soluble

Question: Which “soluble on expression in E. coli” value does the source give for “MFKVTFAFENGSEVEAFANAGDNLLEVARGANVAIDAPCSGNGACGKCRVQLKGGELDSKKTLHISDEEFEKGWRLACMSKICADVEVLVPDIASAYKSRMKVADLSSKEEIAIFEKAKNQVEETGIQLRNSLEVVELQMTEPTLDDTMPDVERLTRALRKFMNLKRIRVPYAVLRKLPDVLRASKFSVKCVVRVTPDDMFVYDIFDAKEDVIMGGLAVDIGTTTVSAVIINMATGEILAKSSSGNGQIRYGADVINRIIETTKPGGIKKLQDAVIKETINPMIHEMCRSIHLPENQIYRMCVASNTTMNHLFAGINADYLRTEPYIPAFFKTNSLFASDVGIEINGDAHIIMAPNIGSYVGGDITAGTLVSMIWNRPEFSLFIDLGTNGELVFGNSDFMMSCACSAGPAFEGGDISCGMRATDGAIEACTIDKETMEPTYKVVGEPGTKPVGLCGSGIIDVISELFMTGIINPKGKFVREGKRVRHDHYGMGSYVIAFEEEAGSVKDVEITEVDIDNFIRAKGAIFSAIRTMLSSLDFDVSMIDDVYVAGGIGSGINMQNAVNIGMFPDVPLEKFHYIGNSSLTGAYLMLLSTQAEKKTYELASNMTYMELSTVPTYMDEFVGACFIPHTDASMFPNVHQRLEHHHHHH” here?
Answer: not soluble

Question: Which “soluble on expression in E. coli” value does the source give for “MGHHHHHHSHMPPHPAIFFYCLLRQGLTMLPRLVLNFWAQAVHLPRPPRVLGLQAGGTAPGQKKLFLTSHFPPASPLPLCFSLQQNFKKHSPRSPPGILGSLYPGFCSPIATSPFAKGTRGLRVVGSSGRLSASS” here?
Answer: not soluble

Question: With “MGSDKIHHHHHHMNTNDTELLRLFETLTTEQKIDIARHLLQNKDIKSTTVIATEEDKAISFAQPYVFAFTSNFRVFSDLDISKNEFRVLTYILEYMEFGNLINLSQSSLCKALNIASGNMSNIFKKLKQKGILVEHHGHLYINSNIFAKGLSHQLDEKRKEHLSNARSLHAELEQYPENYTDYSKQERRNLALETETKEIYTDAFIFSKKKKNNAVPNAKNSIKIDKPRKVYKRTKENEAARKDLADAKNHLKAVS” as the sequence, how does the “soluble on expression in E. coli” value read?
Answer: not soluble

Question: With “MGSSHHHHHHSSGLEVLFQGPLHMGIKYQKIGDVVIVKKELSEDEIREIVKRTKCKAILLYTTQITGEFRTPHVKILYGKETETIHKEYGCLFKLDVAKIMWSQGNIEERKRMAFISNENEVVVDMFAGIGYFTIPLAKYSKPKLVYAIEKNPTAYHYLCENIKLNKLNNVIPILADNRDVELKDVADRVIMGYVHKTHKFLDKTFEFLKDRGVIHYHETVAEKIMYERPIERLKFYAEKNGYKLIDYEVRKIKKYAPGVWHVVVDAKFERI” as the sequence, how does the “soluble on expression in E. coli” value read?
Answer: soluble

Question: With “MYNDVLFPGEDINKPISIAAANRFVNRIRGGMDLGYWRTHDFRRTLVTRLSEMNVEPHVTERMLGHELGGIMSVYNKHDWIEAQRKAYELHADKLFWHIRSISD” as the sequence, how does the “soluble on expression in E. coli” value read?
Answer: not soluble

Question: With “MTKTNLITGFLGSGKTTSILHLLAHKDPAEKWAVLVNEFGEVGIDGALLADSGALLKEIPGGCMCCVNGLPMQVGLNTLLRQGKPDRLLIEPTGLGHPKQILDLLTAPVYEPWIDLRATLCILDPRLLLDQQSVANENFRDQLASADIIIANKTDRATAQSDAALQQWWRQYGGDRQLIHAEHGQIDGKLLDLPRQNLAELPASAAHSHTHASKKGLAALNLPAQQRWRRSLNSGQGHQACGWIFDADTVFDTIGLLEWARLAPVGRVKGVMRIQEGLVRINRQGDDLHIETQSVAPPDSRVELISNTETDWNTLQTALLKLRLATHA” as the sequence, how does the “soluble on expression in E. coli” value read?
Answer: not soluble

Question: With “MKINNKLVGERIQNIRLSHGDSMEKFGEKFNTSKGTVNNWEKGRNLPNKENLLKIASIGKMSVEELLYGDYNTYLHLKIMDLAPECIKNYDEYNSLHDDITNKALQIAQNTISKIDYQISDETIKKFIDLAIEQSRDLQGNLLKNNLSNFDYSLFGGTRNREYFYFGYRLTYKEKYLYTALLAILNESTKTIYIDDINTARFFNFFGNDIPNSSLKKIDYIAPSEIVSFSTYVRQRSKVIPKILEHILKSSFLLENIDVSGYTVNILEDQLTKHRTIKISKN” as the sequence, how does the “soluble on expression in E. coli” value read?
Answer: not soluble

Question: Which “soluble on expression in E. coli” value does the source give for “MSLIKVLIVEDDPMVAMLNAHYLEQVGGFELVQAVNSVKSAIEVLEESRIDLVLLDIFMPEETGFELLMYIRNQEKEIDIMMISAVHDMGSIKKALQYGVVDYLIKPFTFERFKEALTIYREKLTFMKEQQKISQSELDSLILQKEKREPTVTKELPKGLTKQTLQLIWQKIELLNGRAFTTDEMSQLVGISRVSIRKYVMFLTDIGVLENEMMYQHVGRPVSKLRCVDQKKIEFYVEGHHHHHH” here?
Answer: soluble

Question: For “MEGLQRSTISFRRQGSSGIVFDDRLIAELNKSGNNEQKDESQRDEQPKPMSESSEQVKPIDEKDKLRPIKTGGGAPGGIERSRSNGGGAQRHHRTTGRVSPAVDPPSPRISSCGCCSAFGKNPPGKKVNPRKRPPKRRSR”, which “soluble on expression in E. coli” value is on record?
Answer: not soluble

Question: Which “soluble on expression in E. coli” value does the source give for “MGSYLSVPAYFTSRDLFRCSECQDSLTNWYYEKDGKLYCPKDYWGKFGEFCHGCSLLMTGPFMVAGEFKYHPECFACMSCKVIIEDGDAYALVQHATLYCGKCHNEVVLAPMFERLSTESVQEQLPYSVTLISMPATTEGRRGFSVSVESACSNYATTVQVKEVNRMHISPNNRNAIHPGDRILEINGTPVRTLRVEEVEDAISQTSQTLQLLIEHDPVSQRLDQLRLEARLAPHMQNAGHPHALSTLDTKENLEGTLRRRSLRRSNSISKSPGPSSPKEPLLFSRDISRSESLRCSSSYSQQIFRPCDLIHGEVLGKGFFGQAIKVTHKATGKVMVMKELIRCDEETQKTFLTEVKVMRSLDHPNVLKFIGVLYKDKKLNLLTEYIEGGTLKDFLRSMDPFPWQQKVRFAKGIASGMAYLHSMCIIHRDLNSHNCLIKLDKTVVVADFGLSRLIVEERKRAPMEKATTKKRTLRKNDRKKRYTVVGNPYWMAPEMLNGKSYDETVDIFSFGIVLCEIIGQVYADPDCLPRTLDFGLNVKLFWEKFVPTDCPPAFFPLAAICCRLEPESRAPPGAAGEGPGCADDEGPVRRQGKVTIKYDPKELRKHLNLEEWILEQLTRLYDCQEEEISELEIDVDELLDMESDDAWASRVKELLVDCYKPTEAFISGLLDKIRAMQKLSTPQKK” here?
Answer: soluble

Question: With “MRILHTSDWHLGQNFYSKSREAEHQAFLDWLLETAQTHQVDAIIVAGDVFDTGSPPSYARTLYNRFVVNLQQTGCHLVVLAGNHDSVATLNESRDIMAFLNTTVVASAGHAPQILPRRDGTPGAVLCPIPFLRPRDIITSQAGLNGIEKQQHLLAAITDYYQQHYADACKLRGDQPLPIIATGHLTTVGASKSDAVRDIYIGTLDAFPAQNFPPADYIALGHIHRAQIIGGMEHVRYCGSPIPLSFDECGKSKYVHLVTFSNGKLESVENLNVPVTQPMAVLKGDLASITAQLEQWRDVSQEPPVWLDIEITTDEYLHDIQRKIQALTESLPVEVLLVRRSREQRERVLASQQRETLSELSVEEVFNRRLALEELDESQQQRLQHLFTTTLHTLAGEHEA” as the sequence, how does the “soluble on expression in E. coli” value read?
Answer: soluble

Question: Which “soluble on expression in E. coli” value does the source give for “MAQVAIITASDSGIGKECALLLAQQGFDIGITWHSDEEGAKDTAREVVSHGVRAEIVQLDLGNLPEGALALEKLIQRLGRIDVLVNNAGAMTKAPFLDMAFDEWRKIFTVDVDGAFLCSQIAARQMVKQGQGGRIINITSVHEHTPLPDASAYTAAKHALGGLTKAMALELVRHKILVNAVAPGAIATPMNGMDDSDVKPDAEPSIPLRRFGATHEIASLVVWLCSEGANYTTGQSLIVDGGFMLANPQFNPE” here?
Answer: soluble

Question: Which “soluble on expression in E. coli” value does the source give for “MASTELSLKRTLTDILEDELYHTNPGHSQFTSHYQNYHPNASITPYKLVNKNKENNTFTWNHSLQHQNESSAASIPPQQTYHFPIFNKYADPTLTTTTSFTTSEATANDRQINNVHLIPNEIKGASETPLQKTVNLKNIMKVSDPYVPTRNTFNYDVKISNDFFDNGDNLYGNDEEVLFYEDNYNPKMQWSLQDNSAAINNEDARAIFNNEFDSDDDDISDDEEDEIEENCLQQEQHQEEPLLSLDVTPISMFGSDQKTGRAKSSSHLFNEYSYVDSNMDSISSVVSEDLLDERGHEKIEDEDEDNDLDEDDIYDISLLKNRRKQSFVLNKNTIDFERFPSPSTSANVPSTATTGKRKPAKSSSNRSCVSNSNENGTLERIKKPTSAVVSSNASRRKLINYTKKHLSSHSSTNSNSKPSTASPSAHTSSSDGNNEIFTCQIMNLITNEPCGAQFSRSYDLTRHQNTIHAKRKIVFRCSECIKILGSEGYQKTFSRLDALTRHIKSKHEDLSLEQRQEVTKFAKANIGYVMG” here?
Answer: not soluble

Question: With “MFSVLLSVYYNESPYYFRQSIDSLFNQSLQLAEVVLVKDGELTPELENVITEYTAKYLQIRVVPLKQNQGLGKALNEGLKHCSYDLVARMDTDDIAKPNRFEKQIRVFQEHPELDVVGAWIDEFEETTSNIISTRKLPEVHDDICQFAKKRNPENHPVIMFRKQAVLAAGGYQHFPLFEDYYLWIRMLQNGAKFYNIQESLLYFRFSSAMFKRRGGLKYVTTELRFQNLLRNLEFITFSEYLYNVFIRVITRMMPNSLRAILYKKALRK” as the sequence, how does the “soluble on expression in E. coli” value read?
Answer: not soluble
